Data on 4 variants can be found in IntAct's records for PubMed 9299557.

B1: Tumor necrosis factor alpha-induced protein 3 (Homo sapiens), P21580 (parent)
chain: MAEQVLPQALYLSNMRKAVKIRERTPEDIFKPTNGIIHHFKTMHRYTLEMFRTCQFCPQFREIIHKALIDRNIQATLESQKKLNWCREVRKLVALKTNGDGNCLMHATSQYMWGVQDTDLVLRKALFSTLKETDTRNFKFRWQLESLKSQEFVETGLCYDTRNWNDEWDNLIKMASTDTPMARSGLQYNSLEEIHIFVLCNILRRPIIVISDKMLRSLESGSNFAPLKVGGIYLPLHWPAQECYRYPIVLGYDSHHFVPLVTLKDSGPEIRAVPLVNRDRGRFEDLKVHFLTDPENEMKEKLLKEYLMVIEIPVQGWDHGTTHLINAAKLDEANLPKEINLVDDYFELVQHEYKKWQENSEQGRREGHAQNPMEPSVPQLSLMDVKCETPNCPFFMSVNTQPLCHECSERRQKNQNKLPKLNSKPGPEGLPGMALGASRGEAYEPLAWNPEESTGGPHSAPPTAPSPFLFSETTAMKCRSPGCPFTLNVQHNGFCERCHNARQLHASHAPDHTRHLDPGKCQACLQDVTRTFNGICSTCFKRTTAEASSSLSTSLPPSCHQRSKSDPSRLVRSPSPHSCHRAGNDAPAGCLSQAARTPGDRTGTSKCRKAGCVYFGTPENKGFCTLCFIEYRENKHFAAASGKVSPTASRFQNTIPCLGRECGTLGSTMFEGYCQKCFIEAQNQRFHEAKRTEEQLRSSQRRDVPRTTQSTSRPKCARASCKNILACRSEELCMECQHPNQRMGPGAHRGEPAPEDPPKQRCRAPACDHFGNAKCNGYCNECFQFKQMYG
partner: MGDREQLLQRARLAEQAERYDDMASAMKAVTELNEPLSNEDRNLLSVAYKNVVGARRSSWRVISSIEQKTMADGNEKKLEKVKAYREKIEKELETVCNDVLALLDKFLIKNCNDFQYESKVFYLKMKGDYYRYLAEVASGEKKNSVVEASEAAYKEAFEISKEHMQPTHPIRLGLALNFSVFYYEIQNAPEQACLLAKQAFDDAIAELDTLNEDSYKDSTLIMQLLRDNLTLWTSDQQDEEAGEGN
B2: Tumor necrosis factor alpha-induced protein 3 (Homo sapiens), P21580 (parent)
chain: B1 chain

Variants of B1 are the subject of the first assay. Conditions: with 1433f_mouse Ywhah.
S565A: the “effect of a mutation on the interaction” value is given as “disrupting interaction”.
On to R562A, for which the “effect of a mutation on the interaction” value is listed as “disrupting interaction”.

Another assay covers variants of B2. Conditions: with 1433z_mouse Ywhaz.
As for S565A, the “effect of a mutation on the interaction” value is “disrupting interaction”.
In the case of R562A, the “effect of a mutation on the interaction” value is recorded as “disrupting interaction”.
